Sequences and labels used below:
B1: KB001 mouse Fab VL A25V (Fab, V domains shown)
VH: EVQLKQSGPGLVAPSQSLSITCTVSGFSLSIYSVHWVRQPPGKGLEWLGMIWGGGSSDYNSALKSRLSISKDNSKSQVFLKMNSLQTDDTAMYYCARNGNFYAMDYWGQGTSVTVSS
VL: QIVLTQSPAIMSASLGERVTMTCTVSSSVSSSFLHWYQQKPGSSPQLWIYSTSNLASGVPARFSGSGSGTSYSLTISSMEAEDAATYYCHQYHHSPYIYTFGGGTKLEIK
B2: KB001 mouse Fab VL A25E (Fab, V domains shown)
VH: EVQLKQSGPGLVAPSQSLSITCTVSGFSLSIYSVHWVRQPPGKGLEWLGMIWGGGSSDYNSALKSRLSISKDNSKSQVFLKMNSLQTDDTAMYYCARNGNFYAMDYWGQGTSVTVSS
VL: QIVLTQSPAIMSASLGERVTMTCTESSSVSSSFLHWYQQKPGSSPQLWIYSTSNLASGVPARFSGSGSGTSYSLTISSMEAEDAATYYCHQYHHSPYIYTFGGGTKLEIK
B3: KB001 mouse Fab VL S27W (Fab, V domains shown)
VH: EVQLKQSGPGLVAPSQSLSITCTVSGFSLSIYSVHWVRQPPGKGLEWLGMIWGGGSSDYNSALKSRLSISKDNSKSQVFLKMNSLQTDDTAMYYCARNGNFYAMDYWGQGTSVTVSS
VL: QIVLTQSPAIMSASLGERVTMTCTASWSVSSSFLHWYQQKPGSSPQLWIYSTSNLASGVPARFSGSGSGTSYSLTISSMEAEDAATYYCHQYHHSPYIYTFGGGTKLEIK
B4: KB001 mouse Fab VL S28H (Fab, V domains shown)
VH: EVQLKQSGPGLVAPSQSLSITCTVSGFSLSIYSVHWVRQPPGKGLEWLGMIWGGGSSDYNSALKSRLSISKDNSKSQVFLKMNSLQTDDTAMYYCARNGNFYAMDYWGQGTSVTVSS
VL: QIVLTQSPAIMSASLGERVTMTCTASSHVSSSFLHWYQQKPGSSPQLWIYSTSNLASGVPARFSGSGSGTSYSLTISSMEAEDAATYYCHQYHHSPYIYTFGGGTKLEIK
B5: KB001 mouse Fab VL S28T/S12R (Fab, V domains shown)
VH: EVQLKQSGPGLVAPSQSLSITCTVSGFSLSIYSVHWVRQPPGKGLEWLGMIWGGGSSDYNSALKSRLSISKDNSKSQVFLKMNSLQTDDTAMYYCARNGNFYAMDYWGQGTSVTVSS
VL: QIVLTQSPAIMRASLGERVTMTCTASSTVSSSFLHWYQQKPGSSPQLWIYSTSNLASGVPARFSGSGSGTSYSLTISSMEAEDAATYYCHQYHHSPYIYTFGGGTKLEIK
B6: KB001 mouse Fab VL S28N (Fab, V domains shown)
VH: EVQLKQSGPGLVAPSQSLSITCTVSGFSLSIYSVHWVRQPPGKGLEWLGMIWGGGSSDYNSALKSRLSISKDNSKSQVFLKMNSLQTDDTAMYYCARNGNFYAMDYWGQGTSVTVSS
VL: QIVLTQSPAIMSASLGERVTMTCTASSNVSSSFLHWYQQKPGSSPQLWIYSTSNLASGVPARFSGSGSGTSYSLTISSMEAEDAATYYCHQYHHSPYIYTFGGGTKLEIK
B7: KB001 mouse Fab VL S28D (Fab, V domains shown)
VH: EVQLKQSGPGLVAPSQSLSITCTVSGFSLSIYSVHWVRQPPGKGLEWLGMIWGGGSSDYNSALKSRLSISKDNSKSQVFLKMNSLQTDDTAMYYCARNGNFYAMDYWGQGTSVTVSS
VL: QIVLTQSPAIMSASLGERVTMTCTASSDVSSSFLHWYQQKPGSSPQLWIYSTSNLASGVPARFSGSGSGTSYSLTISSMEAEDAATYYCHQYHHSPYIYTFGGGTKLEIK
B8: KB001 mouse Fab VL S27H (Fab, V domains shown)
VH: EVQLKQSGPGLVAPSQSLSITCTVSGFSLSIYSVHWVRQPPGKGLEWLGMIWGGGSSDYNSALKSRLSISKDNSKSQVFLKMNSLQTDDTAMYYCARNGNFYAMDYWGQGTSVTVSS
VL: QIVLTQSPAIMSASLGERVTMTCTASHSVSSSFLHWYQQKPGSSPQLWIYSTSNLASGVPARFSGSGSGTSYSLTISSMEAEDAATYYCHQYHHSPYIYTFGGGTKLEIK
B9: KB001 mouse Fab VL S27M (Fab, V domains shown)
VH: EVQLKQSGPGLVAPSQSLSITCTVSGFSLSIYSVHWVRQPPGKGLEWLGMIWGGGSSDYNSALKSRLSISKDNSKSQVFLKMNSLQTDDTAMYYCARNGNFYAMDYWGQGTSVTVSS
VL: QIVLTQSPAIMSASLGERVTMTCTASMSVSSSFLHWYQQKPGSSPQLWIYSTSNLASGVPARFSGSGSGTSYSLTISSMEAEDAATYYCHQYHHSPYIYTFGGGTKLEIK
B10: KB001 mouse Fab VL S28M (Fab, V domains shown)
VH: EVQLKQSGPGLVAPSQSLSITCTVSGFSLSIYSVHWVRQPPGKGLEWLGMIWGGGSSDYNSALKSRLSISKDNSKSQVFLKMNSLQTDDTAMYYCARNGNFYAMDYWGQGTSVTVSS
VL: QIVLTQSPAIMSASLGERVTMTCTASSMVSSSFLHWYQQKPGSSPQLWIYSTSNLASGVPARFSGSGSGTSYSLTISSMEAEDAATYYCHQYHHSPYIYTFGGGTKLEIK
B11: KB001 mouse Fab VL S27Y (Fab, V domains shown)
VH: EVQLKQSGPGLVAPSQSLSITCTVSGFSLSIYSVHWVRQPPGKGLEWLGMIWGGGSSDYNSALKSRLSISKDNSKSQVFLKMNSLQTDDTAMYYCARNGNFYAMDYWGQGTSVTVSS
VL: QIVLTQSPAIMSASLGERVTMTCTASYSVSSSFLHWYQQKPGSSPQLWIYSTSNLASGVPARFSGSGSGTSYSLTISSMEAEDAATYYCHQYHHSPYIYTFGGGTKLEIK
B12: KB001 mouse Fab VL S27V (Fab, V domains shown)
VH: EVQLKQSGPGLVAPSQSLSITCTVSGFSLSIYSVHWVRQPPGKGLEWLGMIWGGGSSDYNSALKSRLSISKDNSKSQVFLKMNSLQTDDTAMYYCARNGNFYAMDYWGQGTSVTVSS
VL: QIVLTQSPAIMSASLGERVTMTCTASVSVSSSFLHWYQQKPGSSPQLWIYSTSNLASGVPARFSGSGSGTSYSLTISSMEAEDAATYYCHQYHHSPYIYTFGGGTKLEIK
B13: KB001 mouse Fab VL S26T (Fab, V domains shown)
VH: EVQLKQSGPGLVAPSQSLSITCTVSGFSLSIYSVHWVRQPPGKGLEWLGMIWGGGSSDYNSALKSRLSISKDNSKSQVFLKMNSLQTDDTAMYYCARNGNFYAMDYWGQGTSVTVSS
VL: QIVLTQSPAIMSASLGERVTMTCTATSSVSSSFLHWYQQKPGSSPQLWIYSTSNLASGVPARFSGSGSGTSYSLTISSMEAEDAATYYCHQYHHSPYIYTFGGGTKLEIK
B14: KB001 mouse Fab VL S27N (Fab, V domains shown)
VH: EVQLKQSGPGLVAPSQSLSITCTVSGFSLSIYSVHWVRQPPGKGLEWLGMIWGGGSSDYNSALKSRLSISKDNSKSQVFLKMNSLQTDDTAMYYCARNGNFYAMDYWGQGTSVTVSS
VL: QIVLTQSPAIMSASLGERVTMTCTASNSVSSSFLHWYQQKPGSSPQLWIYSTSNLASGVPARFSGSGSGTSYSLTISSMEAEDAATYYCHQYHHSPYIYTFGGGTKLEIK
B15: KB001 mouse Fab VL S26G (Fab, V domains shown)
VH: EVQLKQSGPGLVAPSQSLSITCTVSGFSLSIYSVHWVRQPPGKGLEWLGMIWGGGSSDYNSALKSRLSISKDNSKSQVFLKMNSLQTDDTAMYYCARNGNFYAMDYWGQGTSVTVSS
VL: QIVLTQSPAIMSASLGERVTMTCTAGSSVSSSFLHWYQQKPGSSPQLWIYSTSNLASGVPARFSGSGSGTSYSLTISSMEAEDAATYYCHQYHHSPYIYTFGGGTKLEIK
B16: KB001 mouse Fab VL S26P (Fab, V domains shown)
VH: EVQLKQSGPGLVAPSQSLSITCTVSGFSLSIYSVHWVRQPPGKGLEWLGMIWGGGSSDYNSALKSRLSISKDNSKSQVFLKMNSLQTDDTAMYYCARNGNFYAMDYWGQGTSVTVSS
VL: QIVLTQSPAIMSASLGERVTMTCTAPSSVSSSFLHWYQQKPGSSPQLWIYSTSNLASGVPARFSGSGSGTSYSLTISSMEAEDAATYYCHQYHHSPYIYTFGGGTKLEIK
B17: KB001 mouse Fab VL S27L (Fab, V domains shown)
VH: EVQLKQSGPGLVAPSQSLSITCTVSGFSLSIYSVHWVRQPPGKGLEWLGMIWGGGSSDYNSALKSRLSISKDNSKSQVFLKMNSLQTDDTAMYYCARNGNFYAMDYWGQGTSVTVSS
VL: QIVLTQSPAIMSASLGERVTMTCTASLSVSSSFLHWYQQKPGSSPQLWIYSTSNLASGVPARFSGSGSGTSYSLTISSMEAEDAATYYCHQYHHSPYIYTFGGGTKLEIK
B18: KB001 mouse Fab VL S27K/S68Y (Fab, V domains shown)
VH: EVQLKQSGPGLVAPSQSLSITCTVSGFSLSIYSVHWVRQPPGKGLEWLGMIWGGGSSDYNSALKSRLSISKDNSKSQVFLKMNSLQTDDTAMYYCARNGNFYAMDYWGQGTSVTVSS
VL: QIVLTQSPAIMSASLGERVTMTCTASKSVSSSFLHWYQQKPGSSPQLWIYSTSNLASGVPARFSGSGYGTSYSLTISSMEAEDAATYYCHQYHHSPYIYTFGGGTKLEIK
B19: KB001 mouse Fab VL V29I (Fab, V domains shown)
VH: EVQLKQSGPGLVAPSQSLSITCTVSGFSLSIYSVHWVRQPPGKGLEWLGMIWGGGSSDYNSALKSRLSISKDNSKSQVFLKMNSLQTDDTAMYYCARNGNFYAMDYWGQGTSVTVSS
VL: QIVLTQSPAIMSASLGERVTMTCTASSSISSSFLHWYQQKPGSSPQLWIYSTSNLASGVPARFSGSGSGTSYSLTISSMEAEDAATYYCHQYHHSPYIYTFGGGTKLEIK

Where “and” joins values, the source holds several entries; their conditions need not be identical. Equal entries are not always repeated.

The test deals with HRgpA-6H (Porphyromonas gingivalis) (UniProt P28784). Briefly: ELISA, FASEBA Fab on coated HRgpA-6H.
UniProt P28784, sequence (P28784 228-991): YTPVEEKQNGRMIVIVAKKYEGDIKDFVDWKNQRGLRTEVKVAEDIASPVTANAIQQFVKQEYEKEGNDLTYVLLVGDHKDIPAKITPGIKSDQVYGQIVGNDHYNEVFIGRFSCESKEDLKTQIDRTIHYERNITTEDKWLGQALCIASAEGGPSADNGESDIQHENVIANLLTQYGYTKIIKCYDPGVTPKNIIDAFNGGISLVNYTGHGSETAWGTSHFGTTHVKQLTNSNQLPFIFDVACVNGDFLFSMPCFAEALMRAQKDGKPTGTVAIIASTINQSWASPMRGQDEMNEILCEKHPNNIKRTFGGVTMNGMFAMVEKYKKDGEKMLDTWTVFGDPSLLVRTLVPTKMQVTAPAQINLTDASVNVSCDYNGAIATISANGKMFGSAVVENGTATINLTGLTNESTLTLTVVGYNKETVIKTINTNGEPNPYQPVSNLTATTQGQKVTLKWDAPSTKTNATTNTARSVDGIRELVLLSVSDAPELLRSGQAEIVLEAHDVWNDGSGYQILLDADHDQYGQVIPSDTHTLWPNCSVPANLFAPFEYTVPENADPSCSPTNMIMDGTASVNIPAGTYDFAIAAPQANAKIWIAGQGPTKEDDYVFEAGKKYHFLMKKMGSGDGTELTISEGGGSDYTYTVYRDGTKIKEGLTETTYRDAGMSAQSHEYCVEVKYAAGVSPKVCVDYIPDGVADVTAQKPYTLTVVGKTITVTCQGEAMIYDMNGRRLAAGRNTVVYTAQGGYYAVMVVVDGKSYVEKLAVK
As to B1, the OD450nm was found to be 0.768 and the Ratio OD(Variant)/OD(WT) stood at 0.981.

B2: the OD450nm is 0.655 and the Ratio OD(Variant)/OD(WT) was found to be 0.837.

For B3, the OD450nm was determined as 0.601 and the Ratio OD(Variant)/OD(WT) is 0.801.

With B4, the OD450nm was 0.719 and the Ratio OD(Variant)/OD(WT) is 0.958.

On to B5, for which the OD450nm was 0.747 and the Ratio OD(Variant)/OD(WT) was found to be 0.995.

As for B6, the OD450nm was 0.743 and the Ratio OD(Variant)/OD(WT) stood at 0.99.

For the molecule B7, the OD450nm was 0.745 and 0.722; the Ratio OD(Variant)/OD(WT) is 0.993 and 0.962.

B8: the OD450nm is 0.664 and 0.63 and 0.726; the Ratio OD(Variant)/OD(WT) is 0.885 and 0.839 and 0.967.

With B9, the OD450nm was determined as 0.709 and the Ratio OD(Variant)/OD(WT) was 0.945.

For the molecule B10, the OD450nm is 0.706 and 0.675; the Ratio OD(Variant)/OD(WT) was 0.941 and 0.899.

With B11, the OD450nm was found to be 0.617 and the Ratio OD(Variant)/OD(WT) worked out at 0.822.

On to B12, for which the OD450nm is 0.645 and 0.646; the Ratio OD(Variant)/OD(WT) was 0.859 and 0.861.

On to B13, for which the OD450nm stood at 0.761 and the Ratio OD(Variant)/OD(WT) is 0.972.

Regarding B14, the OD450nm was 0.675 and 0.724 and 0.64; the Ratio OD(Variant)/OD(WT) was 0.899 and 0.965 and 0.853.

With B15, the OD450nm was found to be 0.73 and the Ratio OD(Variant)/OD(WT) was determined as 0.932.

For B16, the OD450nm is 0.644 and 0.677; the Ratio OD(Variant)/OD(WT) was 0.822 and 0.865.

Turning to B17, the OD450nm came out at 0.649 and the Ratio OD(Variant)/OD(WT) worked out at 0.865.

Turning to B18, the OD450nm worked out at 0.736 and the Ratio OD(Variant)/OD(WT) came to 0.981.

With B19, the OD450nm came to 0.853 and the Ratio OD(Variant)/OD(WT) amounted to 0.99.
